How the values were obtained:
HUVEC tube formation = HUVEC tube formation assay; assay type: cell-based, human; conditions: branches as % of MOCK
Experimental: Genetic mutation introduced during antibody engineering induces unpredicted defects, resulting in deterioration in antibody functions. In order to isolate antibodies for suppressing clec14a-mediated angiogenesis, tube formation and endothelial cell migration assay using human umbilical vein endothelial cells (HUVECs) were conducted in the presence or absence of clone 1 IgG and deglyco C1-C4 IgGs. Among the four types of deglyco IgGs, deglyco C1 IgG was selected as a candidate antibody. […] In addition, it can be seen that deglyco C1 IgG includes desired alterations (N32R/N33C/S34G) in the amino acid sequence in light chain CDR1.
In order to compare in vitro angiogenesis suppression effect between deglyco C1 IgG and bevacizumab, tube formation and migration assay were conducted in the presence or absence of parent antibody IgG, deglyco C1 IgG or bevacizumab as a positive control group.
In order to investigate in vitro effects of deglyco C1 IgG on VEGF-dependent angiogenesis, HUVECs were treated with VEGF in the presence or absence of deglyco C1 IgG, and then HUVEC tube formation assay was conducted. 150 μl of Matrigel was added to a 48-well plate and incubated at 37° C. for 30 minutes. HUVEC (10^5) cultured in EGM-2 were collected, seeded on the Matrigel-coated plate and incubated at 37° C. for 18 hours in the presence or absence of clone 1 IgG, parent antibody IgG, deglycosylated clec14a-CTLD IgG or bevacizumab. HUVECs cultured in VEGF-containing EBM (endothelial cell basal medium) were seeded to the Matrigel-coated plate and incubated at 37° C. for 18 hours in the presence or absence of deglyco C1 IgG (20 μg ml^−1).

[1] = aggregation of purified antibody by visual observation and spectrophotometry; assay type: physicochemical; conditions: for aggregation by visual observation: purified antibody preparation
Description: In order to identify improved aggregation degree of clone 1 IgG, aggregation of purified parent antibody IgG and clone 1 IgG was compared by visual observation and then was confirmed by spectrophotometry.

mclec14a-CTLD-Fc = target: T1, mclec14a-CTLD-Fc (Mus musculus, UniProt Q8VCP9); test: ELISA binding specificity
T1 construct: both human and mouse clec14a-CTLDs (hclec14a-CTLD and mclec14a-CTLD)
T1 sequence (Q8VCP9 33-173 limits assumed): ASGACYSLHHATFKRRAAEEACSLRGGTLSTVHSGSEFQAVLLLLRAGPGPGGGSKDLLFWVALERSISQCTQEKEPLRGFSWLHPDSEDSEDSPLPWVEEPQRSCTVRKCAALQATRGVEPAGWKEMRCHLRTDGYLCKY
Description: (§1) Then, the scFv clones were converted into IgG, expressed in human embryonic kidney (HEK) 293 cells and then purified.

hclec14a-CTLD-Fc = target: T2, hclec14a-CTLD-Fc (Homo sapiens, UniProt Q86T13); test: ELISA binding specificity
T2 sequence (Q86T13 33-173 limits assumed): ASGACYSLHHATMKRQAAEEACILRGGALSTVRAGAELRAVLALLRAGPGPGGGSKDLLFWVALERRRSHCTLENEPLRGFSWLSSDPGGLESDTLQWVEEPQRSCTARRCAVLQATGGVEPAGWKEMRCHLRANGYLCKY
Description: as §1

[2] = water-soluble antibody weighed after aggregates precipitated and removed by centrifugation; assay type: physicochemical
Description: For further comparison in stability between parent antibody IgG and clone 1 IgG, a water-soluble antibody was weighed after aggregates were precipitated and removed by centrifugation.

B1: Clone 1 IgG: parent antibody CDRs grafted to the framework region of omalizumab (Xolair®) (antibody, V domains shown)
VH: EVQLVESGGGLVQPGGSLRLSCAVSGFTFSGYDMSWIRQAPGKGLEWVAGIYPDGGNTYYADSVKGRFTISRDDSKNTFYLQMNSLRAEDTAVYYCARGATWWVLGPFDYWGQGTLVTVSS
VL: DIQLTQSPSSLSASVGDRVTITCTGSSSNIGNNSVTWYQQKPGKAPKLLIYADSHRPSGVPSRFSGSGSGTDFTLTISSLQPEDFATYYCGAWDDSLSGYVFGQGTKVEIKR
In the case of B1, the “inhibitory activity against HUVEC tube formation” value (HUVEC tube formation) is reported as “inhibitory activity against tube formation, comparable to the parent antibody”, the “aggregation by visual observation” value [1] is reported as “not visually observed” and the “aggregation by visual observation” value ([1]; listed as the antibody substituted with the framework of omalizumab (Xolair®)) is reported as “no aggregation”. The Aggregation index ([1]; spectrophotometry, 100×[Abs340/(Abs280−Abs340)]) was roughly 1.5, the “binding to mclec14a-CTLD-Fc” value (mclec14a-CTLD-Fc) was “cross-reactivity to human and mouse CTLDs” and the “binding to hclec14a-CTLD-Fc” value (hclec14a-CTLD-Fc) was “cross-reactivity to human and mouse CTLDs”. For the same molecule, the “antibody of the preparation aggregated” value [2] was “no antibody aggregation was observed”.

Source: patent US20190309074A1, “DEGLYCOSYLATED ANTIBODY SPECIFICALLY BINDING TO CLEC14A AND USES THEREOF” (WOORI TECHNOLOGIES CORPORATION, priority 2016, published 2019)
